Measurements as given in doi:10.1101/2023.02.03.527063 (bioRxiv, 2023).

Target: T1, FLAG-tagged PXR K109A (human, UniProt O75469 1-434, K109A)
T1 sequence (looked up): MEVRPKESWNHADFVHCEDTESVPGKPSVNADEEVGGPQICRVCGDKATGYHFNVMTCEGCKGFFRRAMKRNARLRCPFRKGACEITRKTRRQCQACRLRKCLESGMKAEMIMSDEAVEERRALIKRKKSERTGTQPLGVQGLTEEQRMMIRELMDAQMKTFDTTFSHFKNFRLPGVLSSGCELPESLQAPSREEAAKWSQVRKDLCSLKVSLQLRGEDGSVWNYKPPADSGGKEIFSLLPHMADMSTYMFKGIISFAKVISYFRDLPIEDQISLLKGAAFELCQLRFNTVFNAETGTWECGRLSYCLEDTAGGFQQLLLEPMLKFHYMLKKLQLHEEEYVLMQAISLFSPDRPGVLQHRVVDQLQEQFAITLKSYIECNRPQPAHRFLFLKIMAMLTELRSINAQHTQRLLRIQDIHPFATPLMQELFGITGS
Test: co-IP

interaction relative to that between FLAG-PXR and BRD9-His: 0.3 fold
B1: His-tagged BRD9 (natural protein, UniProt Q9H8M2 1-597, looked up)
chain: MGKKHKKHKAEWRSSYEDYADKPLEKPLKLVLKVGGSEVTELSGSGHDSSYYDDRSDHERERHKEKKKKKKKKSEKEKHLDDEERRKRKEEKKRKREREHCDTEGEADDFDPGKKVEVEPPPDRPVRACRTQPAENESTPIQQLLEHFLRQLQRKDPHGFFAFPVTDAIAPGYSMIIKHPMDFGTMKDKIVANEYKSVTEFKADFKLMCDNAMTYNRPDTVYYKLAKKILHAGFKMMSKQAALLGNEDTAVEEPVPEVVPVQVETAKKSKKPSREVISCMFEPEGNACSLTDSTAEEHVLALVEHAADEARDRINRFLPGGKMGYLKRNGDGSLLYSVVNTAEPDADEEETHPVDLSSLSSKLLPGFTTLGFKDERRNKVTFLSSATTALSMQNNSVFGDLKSDEMELLYSAYGDETGVQCALSLQEFVKDAGSYSKKVVDDLLDQITGGDHSRTLFQLKQRRNVPMKPPDEAKVGDTLGDSSSSVLEFMSMKSYPDVSVDISMLSSLGKVKKELDPDDSHLNLDETTKLLQDLHEAQAERGGSRPSSNLSSLSNASERDQHHLGSPSRLSVGEQPDVTHDPYEFLQSPEPAASAKT
